Values quoted from earlier work as cited in patent US20050096266A1, “Preparation and method for weight reduction” (priority 2002, published 2005).

System: trypsin
Conditions: trypsin secreted into the duodenum by the pancreas; per one weight unit of inhibitor

B1: soybean trypsin inhibitor: Commercial proteinous trypsin inhibitor (Type Il-S, Sigma Chemical Co.) that binds trypsin, forming inactive complexes (protein, UniProt P01070 25-205, looked up)
Trypsin inhibitor A: DFVLDNEGNPLENGGTYYILSDITAFGGIRAAPTGNERCPLTVVQSRNELDKGIGTIISSPYRIRFIAEGHPLSLKFDSFAVIMLCVGIPTEWSVVEDLPEGPAVKIGENKDAMDGWFRLERVSDDEFNNYKLVFCPQQAEDDKCGDIGISIDHDDGTRRLVVSKNKPLVVQFQKLDKESL
weight units of trypsin inactivated by one weight unit of the inhibitor: 2.5 weight units
